US20090304706A1

Biological target: human CD40 (human) (UniProt P25942)
Experiment: Biacore (SPR)

UniProt P25942, sequence (P25942 20-193 limits assumed): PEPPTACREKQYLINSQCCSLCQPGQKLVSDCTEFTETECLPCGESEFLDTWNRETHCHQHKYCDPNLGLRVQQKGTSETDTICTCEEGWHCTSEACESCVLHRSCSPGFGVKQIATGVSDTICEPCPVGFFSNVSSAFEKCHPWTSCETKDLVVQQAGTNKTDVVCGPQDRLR

monoclonal antibody CHIR-12.12
Kd: 0.5 nM

B1: monoclonal antibody CHIR-5.9 (antibody, human IgG1, kappa, V domains shown)
VH: EVQLVQSGAEVKKPGESLKISCKGSGYSFTSYWIGWVRQMPGKGLEWMGIIYPGDSDTRYSPSFQGQVTISADKSISTAYLQWSSLKASDTAMYYCARGTAAGRDYYYYYGMDVWGQGTTVTVSS
VL: AIVMTQPPLSSPVTLGQPASISCRSSQSLVHSDGNTYLNWLQQRPGQPPRLLIYKFFRRLSGVPDRFSGSGAGTDFTLKISRVEAEDVGVYYCMQVTQFPHTFGQGTRLEIKR
Kd: 12 nM
